According to patent US20170304442A1 (SORRENTO THERAPEUTICS, published 2017):

T1: recombinant mouse WISP1/His (mouse, UniProt O54775 23-367)
T1 construct: also called murine WISP1; mWISP1; not shown: His tag
T1 sequence (looked up): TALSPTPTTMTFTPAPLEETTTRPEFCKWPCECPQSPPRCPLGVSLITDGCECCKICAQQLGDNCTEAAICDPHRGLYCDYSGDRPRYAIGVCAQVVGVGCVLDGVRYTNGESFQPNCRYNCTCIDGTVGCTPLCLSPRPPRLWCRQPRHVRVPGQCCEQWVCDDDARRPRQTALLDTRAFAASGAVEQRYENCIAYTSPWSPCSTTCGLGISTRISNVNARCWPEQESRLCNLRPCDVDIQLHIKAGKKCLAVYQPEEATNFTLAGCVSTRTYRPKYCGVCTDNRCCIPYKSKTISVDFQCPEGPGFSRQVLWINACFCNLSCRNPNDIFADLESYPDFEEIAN

T2: recombinant human WISP1/His (human, UniProt O95388 23-367)
T2 construct: also called hWISP1; recombinant human WISP1 protein; not shown: His tag
T2 sequence (looked up): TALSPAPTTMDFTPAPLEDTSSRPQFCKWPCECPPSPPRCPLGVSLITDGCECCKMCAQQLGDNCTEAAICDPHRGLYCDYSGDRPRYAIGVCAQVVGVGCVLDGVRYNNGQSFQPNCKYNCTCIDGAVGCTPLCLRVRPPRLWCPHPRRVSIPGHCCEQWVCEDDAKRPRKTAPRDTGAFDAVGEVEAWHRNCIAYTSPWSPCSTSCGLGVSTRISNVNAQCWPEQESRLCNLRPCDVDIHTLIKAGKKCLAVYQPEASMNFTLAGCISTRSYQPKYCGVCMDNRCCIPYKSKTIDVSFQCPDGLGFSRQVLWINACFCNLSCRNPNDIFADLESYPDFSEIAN


Experiments:
[1] = molecular target: T1, recombinant mouse WISP1/His; test: ELISA screening
[2] = molecular target: T2, recombinant human WISP1/His; test: ELISA screening

| binding result [1] | binding result [2] | Binder |
| --- | --- | --- |
| binds | binds | WIr1B11 (antibody, V domains shown, Fully human IgG; also called Wlr1B11) VH: EVQLVQSGAEVKKPGASVKVSCKASGYTFTSYDINWVRQATGQGPEWLGWLNPGSGKTGNAQNFQGRVFMTWDTSKDTAYMEMSSLRSDDTAVYYCARNLDYWGQGTLVTVSS VL: DIVMTQTPSSLSASVGDRVTITCRASQSISSYLNWYQQKPGKAPKLLIYAASSLQSGVPSRFSGSRSGTDFTLTITNVQPEDFATYYCLQAYDFPITFGQGTKVEIK |
| binds | binds | WIr2B11 (antibody, V domains shown, Fully human IgG; also called Wlr2B11) VH: EVQLVQSGAEVKKPGASVKVSCKASGYTFTSYDINWVRQATGQGPEWLGWLNPGSGKTGNAQNFQGRVFMTWDTSKDTAYMEMSSLRSDDTAVYYCARNLDYWGQGTLVTVSS VL: AIQLTQSPSTLSASVGDRVTITCRASQSISSWLAWYQQKPGKAPKLLIYATSRLQSGVPSRFSGSGSGTDFTLTINSLQPEDFATYYCQQYKSYPVTFGPGTKVDIK |
| binds | binds | WIr1B6 (antibody, V domains shown, Fully human IgG; also called Wlr1B6) VH: QVQLVESGGGLVQPGGSLRLSCAASGFTFDDYAMHWVRQAPGKGLEWVSGISWNSGSIGYADSVKGRFTISRDNAKNSLYLQMNSLRAEDTALYYCAKVRAAAGTGGDYFDYWGQGTLVTVSS VL: LPVLTQPRSVSGSPGQSVTISCTGSSSDVGRSNFVSWYQQYPGKAPKLMIFDVNKRPSGVPDRFSGSKSGNTASLTISGLQADDEAEYYCSSYAGTWIFGGGTQLTVL |
| binds | binds | WIr2A9 (antibody, V domains shown, Fully human IgG; also called Wlr2A9) VH: QVQLVESGAEVKKPGASVKVSCKVSGYTLTELSMHWVRQAPGKGLEWMGGFDPEDGETIYAQKFQGRVTMTEDTSTDTAYMELSSLRSEDTAVYYCATGGSYYYGSGSYGSRPGYFDLWGRGTLVTVSS VL: QSVLTQPASVSGSPGQSITISCTGTSSDVGSYNLVSWYQQHPGKAPKLMIYEGSKRPSGVPDRFSGSKSGNTASLSISGLQAEDEADYYCSSYTSSSTLVFGGGTKLTVL |
| binds | binds | WIr1G5 (antibody, V domains shown, Fully human IgG; also called Wlr1G5) VH: QVQLVESGGGLIQPGGSLRLSCAASGFTVSSNYMSWVRQAPGKGLEWVSVIYSGGSTYYADSVKGRFTISRDNSKNTLYLQMNSLRAEDTAVYYCARFSGWNAFDIWGQGTMVTVSS VL: DIVMTQTPSTLSASVGDRVTITCRASQSISSWLAWYQQKPGKAPKLLIYKASSLESGVPSRFSGSGSGTDFTLTISSLRPEDFATYYCQHSSTFGQGTRLEIK |
| binds | binds | WIr1G10 (antibody, V domains shown, Fully human IgG; also called Wlr1G10) VH: QVQLQQSGPGLVKPSQTLSLTCAISGDTVSSNSAAWNWIRQSPSRGLEWLGGTYYRSKWYNDYAVSVKSRITINPDTSKNQFSLQLNSVTPEDTAVYYCTRSAPAAFDYWGQGTLVTVSS VL: QSVVTQPPSVSAAPGQKVTISCSGSTSNIGNNYVSWYQQLPGTAPKLLIYDNNKRPSGIPDRFSGSKSGTSATLGITGLQTGDEADYYCGTSDTSLSIYVFGTGTKVTVL |
| binds | binds | WIr2B12 (antibody, V domains shown, Fully human IgG; also called Wlr2B12) VH: EVQLVQSGAEVKKPGASVKVSCKASGYTFTSYYMHWVRQAPGQGLEWMGIINPSGGSTSYAQKFQGRVTMTRDTSTSTAYMELSSLRSEDTAVYYCARDIDDYGDGVWGQGTMVTVSS VL: QSVLTQPPSVSAAPGQKVTISCSGSSSNIANNYVSWYQQLPGTAPKLLIYDNNERPSGIPDRFSGSKSGTSATLGITGLQTGDEADYYCGTWDGSLSAGVFGGGTKLTVL |
| binds | binds | WI1A5 (antibody, V domains shown, Fully human IgG; also called Wl1A5) VH: QVQLVQSGREMKKPGASMKVSCKASGYTFTKYGISWVRQAPGQGLEWMGWISADNGKTHYAQKLQGRVTMTTDTSTSTAYLELRRLRSDDTAVYFCANDGGYWGQGTLVTVSS VL: QSVLTQPPSVSGAPGQRVTISCTGTSSNLGAGFPVYWYQQLPGKPPKVLIDGNNDRPSGVPDRVSGSKSDTSASLAITGLQAEDEADYYCLSYDSGLDGWVFGGGTKLTVL |
| binds | binds | WI1E6 (antibody, V domains shown, Fully human IgG; also called Wl1E6) VH: EVQLLESGGGVVQPGRSLRLSCAASGFTFSSYGMHWVRQAPGKGLEWVAVIWYDGSNKYYADSVKGRFTISRDNSKNTLYLQMNSLRAEDTAVYYCARGSAFNIWGQGTMVTVSS VL: QAVVTQPASVSGSPGQSITISCIGTSSDVGGYNYVSWYQQHPGKAPKLMIYDVSNRPSGVSNRFSGSKSGNTASLTISGLQAEDEADYYCSSYTTSNTFVFGTGTKVTVL |
| binds | binds | WI1A6 (antibody, V domains shown, Fully human IgG; also called Wl1A6) VH: EVQLLESGGGVVQPGRSLRLSCAASGFTFSSYGMHWVRQAPGKGLEWVAVIWYDGSNKYYADSVKGRFTISRDNSKNTLYLQMNSLRAEDTAVYYCARGSAFNIWGQGTMVTVSS VL: LPVLTQPASVSGSPGQSITITCTGTSSDVGAYNYVSWYQQRPGKAPKLMIYDVSKRPSGVSNRFSGSKSGNTASLTISGLQAEDEADYYCSSYTSSSTYVVFGGGTKLTVL |
| binds | binds | WI2D9 (antibody, V domains shown, Fully human IgG; also called Wl2D9) VH: EVQLVQSGAEVKRSGASVKVSCKLSGDTLTDLSIHWVRQAPGKGLEWMGGFDFEDGEIVYGDKFKGRVTVTEDPSTDTAYMDLKRLTFEDTAIYYCATIKDIPGRYYFDFWGQGTLVTVSS VL: QSVVTQPPSVSGAPGQRVTISCTGSSSNIGAGYDVHWYQQLPGTAPKLLIYGNSNRPSGVPDRFSGSKSGTSASLAITGLQAEDEADYYCQSYDSSLSGSNWVFGGGTKLTVL |
| binds | binds | WIr2B8 (antibody, V domains shown, Fully human IgG; also called Wlr2B8) VH: EVQLVQSGAEVKKPGSSVKVSCKASGGTFSSYAISWVRQAPGQGLEWMGGIIPIFGTANYAQKFQGRVTITADESTSTAYMELSSLRSEDTAVYYCARGQPFRDSSGYYWSYFDYWGQGTLVTVSS VL: SYELTQPPSVSKDLRQTATLTCTGNSNNVGNQGAAWLQQHQGHPPKLLSDRNNNRPSGISERLSASRSENIASLTITGLQPEDEADYFCAAWDTSLNTFLFGGGTKLTVL |
| binds | binds | WIr2A2 (antibody, V domains shown, Fully human IgG; also called Wlr2A2) VH: EVQLVQSGAEVKKPGASVKVSCKVSGYTLTELSMHWVRQAPGKGLEWMGGFDPEDGETIYAQKFQGRVTMTEDTSTDTAYMELSSLRSEDTAVYYCATFMFDHDWFQLDPWGQGTLVTVSS VL: QSALTQPPSASGTPGQRVTIACSGSSSNIGTNTVNWYQQLPGTAPKLLIYNNNQRPSGVPDRFSGSKSGTSASLAITGLQAEDEADYYCQSYDRSLSGYVFGSGTKLTVL |
| binds | binds | WIr2A6 (antibody, V domains shown, Fully human IgG; also called Wlr2A6) VH: EVQLVQSGGGLVKPGGSLRLSCEASGFTVSSYYMNWIRQAPGKGLEWISSFTAEGSTYYADSVRGRFSISRDNAKNSLYLEMTRLRADDTAVYYCARDLDRRDWYGGYFDSWGQGTLVTVSS VL: LPVLTQPPSVSGAPGQRLTISCTGSSSNIGAGYGVHWYQHLPGSAPKLLIYGNSNRPSGVTDRISGSKSGTSASLAITGLQTGDEADYYCAAWDSYLSGYVFGTGTKVTVL |
| binds | binds | WIr2A7 (antibody, V domains shown, Fully human IgG; also called Wlr2A7) VH: QVQLVQSGAEVKKPGASVKVSCKVSGYTLTELSIYWVRQAPGKGLEWVGGFDPEDGETVYAQNFQGRVTMTEDTSTDTAYMELSSLRSEDTAVYYCATHTSYDKVWGRYRPSLAFDIWGQGTMVTVSS VL: DIVMTQTPSSLSASVGDRVTITCQASQDISKYLNWYQQKPGKAPNLLIYDASNLETGVPSRFSGSGSGTDFTLTISSLQPEDIGTYYCQQDDNLPLTFGGGTKVEIK |
| binds | binds | WIr2B5 (antibody, V domains shown, Fully human IgG; also called Wlr2B5) VH: EVQLVESGAEVKKPGASVKVSCKASGYTFTSYGISWVRQAPGQGLEWMGWISAYNGNTNYAQKLQGRVTMTTDTSTSTAYMELRSLRSDDTAVYYCARDWDSTSWENYYYGMDVWGQGTTVTVSS VL: DIVMTQTPSSLSASVGDRVTITCQASQDISNYLNWYQQKPGKAPKLLIYDASNLETGVPSRFSGSGSGTDFTFTISSLQPEDIATYYCQQHDNLPLTFGGGTKLEIK |
| binds | binds | WIr1E2 (antibody, V domains shown, Fully human IgG; also called Wlr1E2) VH: QMQLVQSGAEVKEPGSSVKVSCKASGDNSYPLNWVRQAPGQGLEWMGGIIPIFGTPNYAQKFEGRVTITADESTNTAYMEISSLRFEDTAMYYCAREGDGYNYSPLDYWGQGTLVTVSS VL: QAVLTQPPSVSKGLRQTATLTCTGDSSNVGNQGAAWLQQHPGLPPKVLSYRNNSRPSGISERLFVSRSGNSASLTITGLQPEDEADYYCSAWDSSLGAWVFGGGTQLTVL |
| binds | binds | WIrF8 (antibody, V domains shown, Fully human IgG; also called WlrF8) VH: EVQLLESGAEVKKPGASVKVSCRVPGYSLSELSMHWVRQAPGKGLEWMGGFDPEDGETIYAQKFQGRVTMTEDTSTDTAYMELSSLRSEDTAVYYCAASGGWEVHDAFDTWGQGTMVTVSS VL: DIVMTQSPSSLSASVGDRVTITCRASQDISYYLAWYQQKPGKAPELLIYAGSSLQSGVPSRFSGSESGTDFTLTISSLQPEDVASYYCQQYKTAPYTFGQGTKLEIK |
